Test results from the supplement of paper PMC10567573.

B1: TRIM29 (parent)
chain: RKCPVHGKTMELFCQTDQTCICYL
B2: NETO1 (parent)
chain: KTSLLDQLTNTSGTVIGVTSCIVI

Variants of: B1
Experiment: protein stability index of a GFP-peptide fusion (GPS, HEK-293T) (PSI 1-6); higher = more stable
Conditions: c terminus: a fixed tail appended
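Also: lentivirally expressed fusions sorted by FACS into six bins by GFP to DsRed ratio, PSI derived from sequencing read proportions per bin multiplied by bin number.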

Protein stability index of substitutions, site by site:
I21: R 1.88, A 2.77, Y 3.25, K 2.02, M 2.36, P 2.44, Q 3.36, F 2.86, T 3, W 2.78, L 1.73, V 1.92, D 4.33, C 3.49, S 1.91, G 3.1, H 2.98, E 4.47, N 2.52
Q18: T 2.36, P 2.7, Y 1.42, S 1.68, W 1.56, N 1.82, V 2.65, R 1.97
Y23: W 1.59, Q 4.28, I 2.73, L 2.58, G 4.98, F 1.65, P 5.16, N 4.91, D 5.55, V 2.66, H 4.24, A 4.28, K 4.52, S 4.29, C 4.73, R 3.95, M 3.38, T 4.17, E 5.25
L24: C 4.74, S 5.39, F 4.64, V 4.34, A 5.02, Q 5.07, N 4.57, R 4.89, W 4.47, D 5.58, I 4.21, P 5.26, H 4.59, M 4.34, G 5.15, T 5.36, Y 3.86, K 4.82, E 4.75
C20: W 2.42, R 2.38, K 3.17, D 3.16, A 3.08, Y 2.78, L 2.28, I 1.25, P 1.83, N 3.24, V 1.27, M 3.2, H 3.04, G 3.31, Q 3.07, S 2.56
C22: W 1.23, P 2.27, L 3.09, I 2.81, S 2.46, A 1.87, Y 1.45, E 2.58, T 2.16, N 1.67, R 1.99, D 2.38, Q 2.02, H 2.01, M 2.37, G 1.99, V 2.9, F 1.31, K 2.04
T19: S 2.63, W 2.47, Y 1.89, E 2.4, F 1.88, V 1.31, D 1.6, G 2.42, P 2.35, M 2.51, N 2.16, A 3.62, Q 2.32, H 2.95, C 2.66, K 2.44, L 1.59, I 3.16

Variants of: B2
Experiment: as above
Conditions: c terminus: a fixed tail appended

Protein stability index: each site, then its substitutions
T2: Y 3.38, V 2.68, D 3.94, A 3.1, M 2.76, N 2.4, W 2.31, L 2.58, S 2.57, G 3.08, F 3.71, E 2.12, H 2.98, I 3.34, R 3.11, Q 2.94, C 1.93, K 2.64, P 3.5
S12: L 2.43, D 3.07, K 2.89, Q 2.56, P 2.51, I 2.89, M 1.87, T 2.78, A 2.96, H 2.69, V 3.35, F 2.37, E 2.87, N 3.41, G 3.53
T11: F 2.35, H 3.21, C 3.13, R 1.74, N 2.29, W 3.6, G 2.93, L 1.92, P 3.64, V 2.65, E 5.03, Y 2.33, D 3.42, I 2.52, Q 2.81, A 3.75, S 2.15, M 3.29, K 3.11
T9: D 2.58, Y 3.55, M 2.4, A 2.1, L 3.09, I 2.33, F 2.37, G 2.29, K 3.98, H 2.95, R 2.21, W 3.88, V 2.63, S 2.72, N 3.29, P 2.6, C 3.21
S3: V 2.39, A 3.59, N 2.57, M 3.37, H 2.43, G 1.92, P 2.58, R 3.26, F 2.59, W 2.56, K 2.88, C 3.27, Y 3.56, L 2.17, T 2.61, Q 3.04, E 2.86, I 3.45, D 2.46
Q7: N 3.77, F 2.62, H 4.35, P 2.88, C 2.94, T 2.05, E 2.27, S 2.36, V 3.45, K 2.87, Y 2.47, D 3.75, G 3.62, L 3.27, A 2.92, W 2.18, I 2.08, M 2.37, R 1.64
L5: D 2.98, H 2.21, I 2.8, Y 2.3, N 3.16, A 3.63, M 3.86, S 3.07, C 2.32, K 2.78, R 3.13, V 2.59, F 2.32, Q 3.37, W 3.45, P 2.45, G 2.97, E 2.98
K1: H 2.11, Y 2.37, W 3.48, I 2.82, P 3.02, L 2.67, R 1.61, N 2.53, M 3.4, F 3.08, Q 2.81, G 2.6, E 3.07, S 3
L4: S 1.85, N 2.6, H 3.14, K 2.57, Q 3.64, M 2.19, G 4.07, Y 2.83, R 2.34, A 2.65, I 4.14, W 3.2, F 2.99, C 2.08, D 2.7, T 3.56, V 3.28, P 2.67, E 2.94
N10: P 2.96, A 2.13, D 2.47, K 3.15, M 3.51, V 3.24, W 3.97, C 2.71, Y 2.62, I 3.08, E 3.35, Q 2.33, G 3.19, S 2.76, H 2.78, F 2.3, R 2.53, L 3.8, T 2.41
D6: K 1.98, C 4.27, P 1.82, V 2.61, L 2.92, Y 3.38, R 3.02, A 3.62, F 2.58, W 3.03, G 2.31, T 3.2, H 3.23, N 2.37, Q 2.18, M 2.53, E 3.74, S 2.52, I 3.8
L8: K 2.99, W 3.83, E 2.35, T 3.48, C 3.29, G 2, D 3.02, H 3.66, Q 3.09, V 3.52, I 3.38, F 2.71, S 3.3, Y 3.41, N 2.56, R 3.04, P 2.5, A 2.76, M 2.83
